Columns and labels:
[1] = biological target: ComR of Streptococcus mutans UA159 (Streptococcus mutans UA159)
[2] = biological target: ComR of Streptococcus mutans UA159 (Streptococcus mutans UA159); experiment: ITC; paratox 240 μM injected into ComR 20 μM; 20 mM Tris pH 7.5, 100 mM NaCl, 1 mM β-ME; VP-ITC, 25 °C; one-site model
[3] = biological target: ComR of Streptococcus mutans UA159 (Streptococcus mutans UA159); experiment: ITC; XIP 600 μM injected into ComR 20 μM; 20 mM Tris pH 7.5, 100 mM NaCl, 1 mM β-ME with matched DMSO; VP-ITC, 25 °C; one-site model

paratox of Streptococcus pyogenes MGAS8232 (from UniProt Q4VUT1 1-60) (natural protein)
PsigX-luxAB reporter in S. mutans with MGAS8232 prx in trans, 200 nM XIP, against the empty vector [1]: > 2 fold

paratox of Streptococcus pyogenes MGAS5005, prophage MGAS5005.3 (prx3) (from UniProt Q4VUT1 1-60) (natural protein)
PsigX-luxAB reporter in S. mutans with MGAS5005 prx3 in trans, 200 nM XIP, against the empty vector [1]: > 2 fold

paratox (Prx) of Streptococcus pyogenes MGAS315 (from UniProt Q4VUT1 1-60) (natural protein)
PsigX-luxAB reporter in S. mutans with MGAS315 prx in trans, 200 nM XIP, against the empty vector [1]: > 2 fold
Kd [2]: 0.133 µM
stoichiometry N [2]: 0.95

XIP (sigX-inducing peptide) of Streptococcus mutans UA159
Kd [3]: 3.6 µM
stoichiometry N [3]: 1.01
